Article PMC7881136, “Mechanism of karyopherin-β2 binding and nuclear import of ALS variants FUS(P525L) and FUS(R495X)” (Scientific Reports, 2021)
Numbering of substitutions follows the chain as printed. Names may count otherwise.

T1: Kapβ2 (untagged, GST removed) (human, UniProt Q92973-2 1-890)
T1 construct: Karyopherin β2 (Kapβ2, Transportin-1, TNPO1), human; used for ITC and turbidity assays; also called Karyopherin-β2; Transportin-1; source: E. coli BL21 (DE3), purified (GSH column, Tev cleavage, anion exchange, SEC Superdex200)
T1 sequence (looked up): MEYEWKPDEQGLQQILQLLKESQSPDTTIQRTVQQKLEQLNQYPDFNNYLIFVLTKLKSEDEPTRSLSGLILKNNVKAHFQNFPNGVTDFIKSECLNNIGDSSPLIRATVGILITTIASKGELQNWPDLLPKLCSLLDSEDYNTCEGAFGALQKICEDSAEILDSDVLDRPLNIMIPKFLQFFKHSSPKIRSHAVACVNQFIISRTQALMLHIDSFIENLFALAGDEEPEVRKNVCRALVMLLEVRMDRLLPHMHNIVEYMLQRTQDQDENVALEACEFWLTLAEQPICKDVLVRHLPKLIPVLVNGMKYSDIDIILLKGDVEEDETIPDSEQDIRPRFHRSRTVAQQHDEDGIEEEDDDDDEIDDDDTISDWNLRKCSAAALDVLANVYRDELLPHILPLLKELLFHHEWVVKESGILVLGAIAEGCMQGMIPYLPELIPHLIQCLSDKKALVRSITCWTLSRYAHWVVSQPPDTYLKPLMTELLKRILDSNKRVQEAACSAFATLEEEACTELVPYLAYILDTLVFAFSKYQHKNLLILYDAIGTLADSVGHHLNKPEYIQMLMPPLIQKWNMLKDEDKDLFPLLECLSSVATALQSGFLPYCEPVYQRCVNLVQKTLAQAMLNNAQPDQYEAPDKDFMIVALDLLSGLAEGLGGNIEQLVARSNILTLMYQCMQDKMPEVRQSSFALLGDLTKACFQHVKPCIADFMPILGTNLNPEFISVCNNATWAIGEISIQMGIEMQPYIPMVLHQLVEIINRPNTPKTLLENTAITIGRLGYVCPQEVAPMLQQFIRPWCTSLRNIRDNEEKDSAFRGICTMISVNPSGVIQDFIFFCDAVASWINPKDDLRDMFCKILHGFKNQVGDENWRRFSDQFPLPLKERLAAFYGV

T2: GST-Kapβ2 (Karyopherin-β2) (human, UniProt Q92973-2 1-890)
T2 construct: Karyopherin β2 (Kapβ2, Transportin-1, TNPO1), human; GST-importin eluted with glutathione and immobilised again on GSH beads for pull-downs; also called Transportin-1; TNPO1; source: E. coli BL21 (DE3), purified (GSH Sepharose, anion exchange, SEC)
T2 sequence (looked up): T1 sequence (looked up)

B1: MBP-FUS(1–370) (domain or fragment, UniProt P35637 1-370, looked up)
chain: MASNDYTQQATQSYGAYPTQPGQGYSQQSSQPYGQQSYSGYSQSTDTSGYGQSSYSSYGQSQNTGYGTQSTPQGYGSTGGYGSSQSSQSSYGQQSSYPGYGQQPAPSSTSGSYGSSSQSSSYGQPQSGSYSQQPSYGGQQQSYGQQQSYNPPQGYGQQNQYNSSSGGGGGGGGGGNYGQDQSSMSSGGGSGGGYGNQDQSGGGGSGGYGQQDRGGRGRGGSGGGGGGGGGGYNRSSGGYEPRGRGGGRGGRGGMGGSDRGGFNKFGGPRDQGSRHDSEQDNSDNNTIFVQGLGENVTIESVADYFKQIGIIKTNKKTGQPMINLYTDRETGKLKGEATVSFDDPPSAKAAIDWFDGKEFSGNPIKVSFAT
notes: FUS residues 1–370 (missing RGG2-ZnF-RGG3-PYNLS); also called FUS LC-RGG1; source: E. coli BL21 (DE3), purified (amylose resin, SEC); not shown: MBP, N-terminal, kept
B2: MBP-FUS(1–500) (domain or fragment, UniProt P35637 1-500, looked up)
chain: MASNDYTQQATQSYGAYPTQPGQGYSQQSSQPYGQQSYSGYSQSTDTSGYGQSSYSSYGQSQNTGYGTQSTPQGYGSTGGYGSSQSSQSSYGQQSSYPGYGQQPAPSSTSGSYGSSSQSSSYGQPQSGSYSQQPSYGGQQQSYGQQQSYNPPQGYGQQNQYNSSSGGGGGGGGGGNYGQDQSSMSSGGGSGGGYGNQDQSGGGGSGGYGQQDRGGRGRGGSGGGGGGGGGGYNRSSGGYEPRGRGGGRGGRGGMGGSDRGGFNKFGGPRDQGSRHDSEQDNSDNNTIFVQGLGENVTIESVADYFKQIGIIKTNKKTGQPMINLYTDRETGKLKGEATVSFDDPPSAKAAIDWFDGKEFSGNPIKVSFATRRADFNRGGGNGRGGRGRGGPMGRGGYGGGGSGGGGRGGFPSGGGGGGGQQRAGDWKCPNPTCENMNFSWRNECNQCKAPKPDGPGGGPGGSHMGGNYGDDRRGGRGGYDRGGYRGRGGDRGGFRGGRGG
notes: FUS residues 1–500; in the turbidity assays MBP is cut off by Tev during the assay; source: E. coli BL21 (DE3), purified (amylose resin, SEC); not shown: MBP, N-terminal, kept
B3: MBP-FUS PY-NLS (residues 475–526) (domain or fragment, UniProt P35637 475-526, looked up)
chain: GRGGYDRGGYRGRGGDRGGFRGGRGGGDRGGFGPGKMDSRGEHRQDRRERPY
notes: FUS residues 475–526 (PY-NLS); also called FUS(475–526); WT FUS^PY-NLS; source: E. coli BL21 (DE3), purified (amylose resin, SEC); not shown: MBP, N-terminal, kept
B4: MBP-FUS PY-NLS (P525L) (residues 475–526) (domain or fragment, UniProt P35637 475-526, looked up)
chain: B3 chain with P51L
notes: FUS residues 475–526 with the ALS mutation P525L; also called FUS(P525L)^PY-NLS; source: E. coli BL21 (DE3), purified (amylose resin, SEC); not shown: MBP, N-terminal, kept
B5: MBP-FUS(371–500) (RGG2-ZnF-RGG3) (domain or fragment, UniProt P35637 371-500, looked up)
chain: RRADFNRGGGNGRGGRGRGGPMGRGGYGGGGSGGGGRGGFPSGGGGGGGQQRAGDWKCPNPTCENMNFSWRNECNQCKAPKPDGPGGGPGGSHMGGNYGDDRRGGRGGYDRGGYRGRGGDRGGFRGGRGG
notes: also called FUS RGG2-ZnF-RGG3; source: E. coli BL21 (DE3), purified (amylose resin, SEC); not shown: MBP, N-terminal, kept
B6: MBP-FUS(371–452) (RGG2-ZnF) (domain or fragment, UniProt P35637 371-452, looked up)
chain: RRADFNRGGGNGRGGRGRGGPMGRGGYGGGGSGGGGRGGFPSGGGGGGGQQRAGDWKCPNPTCENMNFSWRNECNQCKAPKP
notes: also called FUS RGG2-ZnF; source: E. coli BL21 (DE3), purified (amylose resin, SEC); not shown: MBP, N-terminal, kept
B7: MBP-FUS(1–430) (domain or fragment, UniProt P35637 1-430, looked up)
chain: MASNDYTQQATQSYGAYPTQPGQGYSQQSSQPYGQQSYSGYSQSTDTSGYGQSSYSSYGQSQNTGYGTQSTPQGYGSTGGYGSSQSSQSSYGQQSSYPGYGQQPAPSSTSGSYGSSSQSSSYGQPQSGSYSQQPSYGGQQQSYGQQQSYNPPQGYGQQNQYNSSSGGGGGGGGGGNYGQDQSSMSSGGGSGGGYGNQDQSGGGGSGGYGQQDRGGRGRGGSGGGGGGGGGGYNRSSGGYEPRGRGGGRGGRGGMGGSDRGGFNKFGGPRDQGSRHDSEQDNSDNNTIFVQGLGENVTIESVADYFKQIGIIKTNKKTGQPMINLYTDRETGKLKGEATVSFDDPPSAKAAIDWFDGKEFSGNPIKVSFATRRADFNRGGGNGRGGRGRGGPMGRGGYGGGGSGGGGRGGFPSGGGGGGGQQRAGDWKCPN
notes: FUS residues 1–430 (missing ZnF-RGG3-PYNLS); source: E. coli BL21 (DE3), purified (amylose resin, SEC); not shown: MBP, N-terminal, kept
B8: MBP-FUS(277–500) (domain or fragment, UniProt P35637 277-500, looked up)
chain: SEQDNSDNNTIFVQGLGENVTIESVADYFKQIGIIKTNKKTGQPMINLYTDRETGKLKGEATVSFDDPPSAKAAIDWFDGKEFSGNPIKVSFATRRADFNRGGGNGRGGRGRGGPMGRGGYGGGGSGGGGRGGFPSGGGGGGGQQRAGDWKCPNPTCENMNFSWRNECNQCKAPKPDGPGGGPGGSHMGGNYGDDRRGGRGGYDRGGYRGRGGDRGGFRGGRGG
notes: source: E. coli BL21 (DE3), purified (amylose resin, SEC); not shown: MBP, N-terminal, kept
B9: MBP-FUS(121–500) (domain or fragment, UniProt P35637 121-500, looked up)
chain: SYGQPQSGSYSQQPSYGGQQQSYGQQQSYNPPQGYGQQNQYNSSSGGGGGGGGGGNYGQDQSSMSSGGGSGGGYGNQDQSGGGGSGGYGQQDRGGRGRGGSGGGGGGGGGGYNRSSGGYEPRGRGGGRGGRGGMGGSDRGGFNKFGGPRDQGSRHDSEQDNSDNNTIFVQGLGENVTIESVADYFKQIGIIKTNKKTGQPMINLYTDRETGKLKGEATVSFDDPPSAKAAIDWFDGKEFSGNPIKVSFATRRADFNRGGGNGRGGRGRGGPMGRGGYGGGGSGGGGRGGFPSGGGGGGGQQRAGDWKCPNPTCENMNFSWRNECNQCKAPKPDGPGGGPGGSHMGGNYGDDRRGGRGGYDRGGYRGRGGDRGGFRGGRGG
notes: as for B8
B10: MBP-FUS(1–452) (domain or fragment, UniProt P35637 1-452, looked up)
chain: MASNDYTQQATQSYGAYPTQPGQGYSQQSSQPYGQQSYSGYSQSTDTSGYGQSSYSSYGQSQNTGYGTQSTPQGYGSTGGYGSSQSSQSSYGQQSSYPGYGQQPAPSSTSGSYGSSSQSSSYGQPQSGSYSQQPSYGGQQQSYGQQQSYNPPQGYGQQNQYNSSSGGGGGGGGGGNYGQDQSSMSSGGGSGGGYGNQDQSGGGGSGGYGQQDRGGRGRGGSGGGGGGGGGGYNRSSGGYEPRGRGGGRGGRGGMGGSDRGGFNKFGGPRDQGSRHDSEQDNSDNNTIFVQGLGENVTIESVADYFKQIGIIKTNKKTGQPMINLYTDRETGKLKGEATVSFDDPPSAKAAIDWFDGKEFSGNPIKVSFATRRADFNRGGGNGRGGRGRGGPMGRGGYGGGGSGGGGRGGFPSGGGGGGGQQRAGDWKCPNPTCENMNFSWRNECNQCKAPKP
notes: as for B8
B11: MBP-FUS (full length) (natural protein, UniProt P35637 1-526, looked up)
chain: MASNDYTQQATQSYGAYPTQPGQGYSQQSSQPYGQQSYSGYSQSTDTSGYGQSSYSSYGQSQNTGYGTQSTPQGYGSTGGYGSSQSSQSSYGQQSSYPGYGQQPAPSSTSGSYGSSSQSSSYGQPQSGSYSQQPSYGGQQQSYGQQQSYNPPQGYGQQNQYNSSSGGGGGGGGGGNYGQDQSSMSSGGGSGGGYGNQDQSGGGGSGGYGQQDRGGRGRGGSGGGGGGGGGGYNRSSGGYEPRGRGGGRGGRGGMGGSDRGGFNKFGGPRDQGSRHDSEQDNSDNNTIFVQGLGENVTIESVADYFKQIGIIKTNKKTGQPMINLYTDRETGKLKGEATVSFDDPPSAKAAIDWFDGKEFSGNPIKVSFATRRADFNRGGGNGRGGRGRGGPMGRGGYGGGGSGGGGRGGFPSGGGGGGGQQRAGDWKCPNPTCENMNFSWRNECNQCKAPKPDGPGGGPGGSHMGGNYGDDRRGGRGGYDRGGYRGRGGDRGGFRGGRGGGDRGGFGPGKMDSRGEHRQDRRERPY
notes: Fused in Sarcoma (FUS), full length; in the turbidity assays MBP is cut off by Tev during the assay; also called FL-FUS; MBP-FL FUS; source: E. coli BL21 (DE3), purified (amylose resin, SEC); not shown: MBP, N-terminal, kept

Molecular target: T1, Kapβ2 (untagged, GST removed)
Experiment: ITC; reversed set-up: 10 μM MBP-FUS protein in the cell, 100 μM or 200 μM Kapβ2 in the syringe; 20 mM Tris–HCl, 150 mM NaCl, 10% glycerol, 2 mM BME; 20 °C; single class of binding sites; 'apparent' KD for FUS(1–370)
Conditions: both partners purified

Kd [nM]	Binder
35000	B1
160	B2

Molecular target: T1, Kapβ2 (untagged, GST removed)
Experiment: ITC; 10 μM Kapβ2 in the cell, 100 μM or 200 μM MBP-FUS protein in the syringe; 20 mM Tris–HCl, 150 mM NaCl, 10% glycerol, 2 mM BME; 20 °C; single class of binding sites, global analysis of duplicates or triplicates
Conditions: both partners purified

Kd [nM]	Binder
31	B3
180	B4
170	B5
4000	B6

Molecular target: T2, GST-Kapβ2 (Karyopherin-β2)
Experiment: pull-down; 4–8 μM GST-importin (or GST) immobilised on 50 μL GSH beads; 4–8 μM MBP-FUS protein or GSP1 added in 100 μL; 20 mM HEPES pH 7.4, 110 mM potassium acetate, 2 mM magnesium acetate, 2 mM DTT, 15% glycerol; 30 min at 25 °C, three washes; Coomassie-stained SDS-PAGE
Conditions: both partners purified

binding result	Binder
binds	B7
binds	B8
binds	B9
binds	B10
binds	B11
